Residue numbers refer to the chain shown, from its start. Each block holds one molecule with its values, some of them ahead of it.
Key:
[1] = target: rat Protein C (rat) (UniProt P31394); test: cell-based or functional assay
[2] = target: T1, human sTM variant F376L
T1 chain: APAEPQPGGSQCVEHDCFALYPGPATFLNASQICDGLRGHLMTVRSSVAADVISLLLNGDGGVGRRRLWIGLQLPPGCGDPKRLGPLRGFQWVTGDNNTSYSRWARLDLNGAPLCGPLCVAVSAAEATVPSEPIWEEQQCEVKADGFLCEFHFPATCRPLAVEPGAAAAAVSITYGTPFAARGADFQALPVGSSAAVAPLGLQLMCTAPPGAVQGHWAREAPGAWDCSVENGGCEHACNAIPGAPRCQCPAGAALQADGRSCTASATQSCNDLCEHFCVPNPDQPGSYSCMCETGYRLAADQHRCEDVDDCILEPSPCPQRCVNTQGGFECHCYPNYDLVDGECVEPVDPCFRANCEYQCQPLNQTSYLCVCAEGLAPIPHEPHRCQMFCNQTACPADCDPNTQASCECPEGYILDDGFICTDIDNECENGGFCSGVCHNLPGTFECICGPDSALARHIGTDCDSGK

[3] = target: T2, rat soluble thrombomodulin (rat sTM)
T2 chain: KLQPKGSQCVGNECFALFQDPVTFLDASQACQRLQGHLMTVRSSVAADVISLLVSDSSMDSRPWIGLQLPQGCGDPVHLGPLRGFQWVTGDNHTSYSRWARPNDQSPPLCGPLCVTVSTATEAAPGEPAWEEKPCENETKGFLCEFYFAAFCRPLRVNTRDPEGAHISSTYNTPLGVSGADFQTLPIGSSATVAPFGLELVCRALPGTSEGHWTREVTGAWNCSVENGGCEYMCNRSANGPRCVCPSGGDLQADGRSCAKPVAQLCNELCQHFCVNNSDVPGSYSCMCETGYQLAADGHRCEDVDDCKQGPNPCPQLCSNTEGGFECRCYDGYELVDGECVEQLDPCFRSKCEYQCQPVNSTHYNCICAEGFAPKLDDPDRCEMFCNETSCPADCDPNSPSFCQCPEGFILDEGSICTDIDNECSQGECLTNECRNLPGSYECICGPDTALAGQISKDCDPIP

[4] = target: T3, human soluble thrombomodulin (human sTM)
T3 chain: T1 chain with L376F

- percent PC activation in the presence of rat thrombin, against human thrombin with human Protein C as 100% (human aortic endothelial cells, chromogenic substrate) [1]: 0%
Molecule: endogenous human thrombomodulin on human aortic endothelial cells (from UniProt P07204 19-575) (receptor)

- percent PC activation in the presence of human thrombin, against human thrombin with human Protein C as 100% (human aortic endothelial cells, chromogenic substrate) [1]: 12.8%
Molecule: endogenous human thrombomodulin on human aortic endothelial cells (from UniProt P07204 19-575)

B1: rat Protein C (protein)
chain: ANSFLEEVRAGSLERECMEEICDFEEAQEIFQNVEDTLAFWIKYFDGDQCSTPPLDHQCDSPCCGHGTCIDGLGGFSCSCDKGWEGRFCQQEMGFQDCRVKNGGCYHYCLEETRGRRCRCAPGYELADDHMHCRPTVNFPCGKLWKRTDKKRKNFKRDIDPEDEELELGPRIVNGTLTKQGDSPWQAILLDSKKKLACGGVLIHTSWVLTAAHCLESSKKLTVRLGEYDLRRRDPWELDLDIKEVLVHPNYTRSNSDNDIALLRLSQPATLSKTIVPICLPNSGLAQELSQAGQETVVTGWGYQSDKVKDGRRNRTFILTFIRIPLAARNDCMQVMNNVVSENMLCAGIIGDTRDACDGDSGGPMVVFFRGTWFLVGLVSWGEGCGHLNNYGVYTKVGSYLKWIHSYIGERDVSLKSPKL
- Vmax(mOD405/min) of rat Protein C activation in the presence of rat thrombin (chromogenic substrate S2366) [2]: TLD
- Vmax(mOD405/min) of rat Protein C activation in the presence of rat thrombin (chromogenic substrate S2366) [3]: 47.1 mOD405/min
- Vmax(mOD405/min) of rat Protein C activation in the presence of rat thrombin (chromogenic substrate S2366) [4]: 3.1 mOD405/min
